± gives the uncertainty stated by the source.
Test: self-splicing fitness, log relative to wild type (ln ratio); higher = more splicing; Tetrahymena group I intron in knt gene, E. coli kanamycin selection, DiMSum; sequences stand for … in CUCUCU…GGAGGGAAAAGUUAUCAGGCAUGCACCUGGUAGCUAGUCUUUAAACCAAUAGAUUGCAUCGGUUUAAAAGGCAAGACCGUCAAAUUGCGGGAAAGGGGUCAACAGCCGUUCAGUACCAAGUCUCAGGGGAAACUUUGAGAUGGCCUUGCAAAGGGUAUGGUAAUAAGCUGACGGACAUGGUCCUAACCACGCAGCCAAGUCCUAAGUCAACAGAUCUUCUGUUGAUAUGGAUGCAGUUCACAGACUAAAUGUCGGUCGGGGAAGAUGUAUUCUUCUCAUAAGAUAUAGUCGGACCUCUCCUUAAUGGGAGCUAGCGGAUGAAGUGAUGCAACACUGGAGCCGCUGGGAACUAAUUUGUAUGCGAAAGUAUAUUGAUUAGUUUUGGAGUACUCGUGGUCG
Summary of the method: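 Fitness was computed with DiMSum as the error-weighted combination of replicate fold changes, kanamycin versus none, each normalised to wild type. The library randomised all eight intron nucleotides of the P1ex region, with the intron placed in the knt kanamycin-resistance gene on pET-22b(+) in E. coli BL21(DE3). Six replicate transformations were grown overnight at 37°C or 30°C on LB agar with or without 25 μg/mL kanamycin, plus 100 μg/mL carbenicillin, 50 μM IPTG and 0.2% rhamnose. Pooled colonies were amplicon-sequenced on an Illumina HiSeq 2500.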

Row | Sequence | self-splicing fitness (ln) (30 °C) | self-splicing fitness (ln) (37 °C)
1 | UGUAAGCAAUAUUACGUAAC | -2.22 ± 0.15 | -2.91 ± 0.4
2 | UGUAAGCAAUAUUACGUACA | -0.772 ± 0.098 | -0.557 ± 0.16
3 | UGUAAGCAAUAUUACGUCUC |  | -1.56 ± 0.23
4 | UGUAAGCAAUAUUACGUUGG | -2.14 ± 0.14 | -1.46 ± 0.18
5 | UGUCAGCAAUAUUACGAAGG | -1.69 ± 0.1 | -0.409 ± 0.14
6 | UGUCAGCAAUAUUACGACUC | -1.12 ± 0.14 | 0.256 ± 0.16
7 | UGUCAGCAAUAUUACGCAAA | -0.635 ± 0.11 | -0.0477 ± 0.12
8 | UGUCAGCAAUAUUACGCAGA | -2.8 ± 0.25 | -2.38 ± 0.5
9 | UGUCAGCAAUAUUACGCGCA | -1.67 ± 0.13 | -0.608 ± 0.14
10 | UGUCAGCAAUAUUACGCGGU | -3.09 ± 0.26 | -2.2 ± 0.29
11 | UGUCAGCAAUAUUACGCGUU | -1.16 ± 0.072 | -0.631 ± 0.083
12 | UGUCAGCAAUAUUACGCUAA | -0.476 ± 0.071 | 0.355 ± 0.094
13 | UGUCAGCAAUAUUACGCUGG | -4.05 ± 0.39 | -2.19 ± 0.34
14 | UGUCAGCAAUAUUACGCUUA | -0.0584 ± 0.077 | 0.408 ± 0.11
15 | UGUCAGCAAUAUUACGGAUC | -1.89 ± 0.08 | -0.775 ± 0.075
16 | UGUCAGCAAUAUUACGGCCG | -0.69 ± 0.14 | -0.658 ± 0.17
17 | UGUCAGCAAUAUUACGGGCU | -1.7 ± 0.086 | -1.4 ± 0.12
18 | UGUCAGCAAUAUUACGGUAA | -0.649 ± 0.087 | 0.294 ± 0.1
19 | UGUCAGCAAUAUUACGGUAU | -2.46 ± 0.14 | -1.11 ± 0.12
20 | UGUCAGCAAUAUUACGGUCA | -0.432 ± 0.071 | 0.606 ± 0.091
21 | UGUCAGCAAUAUUACGGUCC | -0.381 ± 0.15 | -0.567 ± 0.19
22 | UGUCAGCAAUAUUACGGUCU | -0.529 ± 0.063 | 0.201 ± 0.083
23 | UGUCAGCAAUAUUACGGUUA | -0.384 ± 0.089 | 0.239 ± 0.087
24 | UGUCAGCAAUAUUACGUACU | -0.114 ± 0.058 | 0.497 ± 0.078
25 | UGUCAGCAAUAUUACGUAUC | -2.16 ± 0.2 | -1.68 ± 0.29

Row | Sequence | self-splicing fitness (ln) (30 °C) | self-splicing fitness (ln) (37 °C)
26 | UGUGAGCAAUAUUACGAAGU | -1.67 ± 0.32 | 
27 | UGUGAGCAAUAUUACGAAUG | -2.16 ± 0.1 | -0.688 ± 0.097
28 | UGUGAGCAAUAUUACGAUCG | -1.36 ± 0.1 | 0.456 ± 0.17
29 | UGUGAGCAAUAUUACGAUUU |  | -2.06 ± 0.27
30 | UGUGAGCAAUAUUACGCAGG | -3.81 ± 0.42 | -1.39 ± 0.27
31 | UGUGAGCAAUAUUACGCCGC | -2.82 ± 0.34 | -1.2 ± 0.48
32 | UGUGAGCAAUAUUACGCGGG |  | -2.31 ± 0.26
33 | UGUGAGCAAUAUUACGCUCU | -1.26 ± 0.3 | 
34 | UGUGAGCAAUAUUACGCUGU | -3.47 ± 0.18 | -2.66 ± 0.19
35 | UGUGAGCAAUAUUACGCUUA | -2.52 ± 0.27 | -2.85 ± 0.27
36 | UGUGAGCAAUAUUACGGAUU |  | -1.59 ± 0.34
37 | UGUGAGCAAUAUUACGGCAU | -3.25 ± 0.28 | -1.53 ± 0.15
38 | UGUGAGCAAUAUUACGGGUG | -2.6 ± 0.14 | -1.9 ± 0.13
39 | UGUGAGCAAUAUUACGGUAC | -3.38 ± 0.28 | -2.3 ± 0.29
40 | UGUGAGCAAUAUUACGGUCC | -3.6 ± 0.48 | -2.09 ± 0.42
41 | UGUGAGCAAUAUUACGUACA | -1.04 ± 0.091 | -0.41 ± 0.1
42 | UGUGAGCAAUAUUACGUCUC | -1.96 ± 0.25 | 
43 | UGUGAGCAAUAUUACGUGAU | -5.21 ± 0.36 | 
44 | UGUGAGCAAUAUUACGUUCA | -3.06 ± 0.31 | -1.56 ± 0.39
45 | UGUUAGCAAUAUUACGAAGG | -1.88 ± 0.16 | -2.16 ± 0.27
46 | UGUUAGCAAUAUUACGACAA | -0.407 ± 0.18 | 0.123 ± 0.16
47 | UGUUAGCAAUAUUACGACAG | -1.39 ± 0.17 | 0.0704 ± 0.2
48 | UGUUAGCAAUAUUACGACGU | -0.716 ± 0.11 | -1.37 ± 0.1
49 | UGUUAGCAAUAUUACGCAUC |  | -1.93 ± 0.27
50 | UGUUAGCAAUAUUACGCCCG | -0.283 ± 0.18 | 0.289 ± 0.22

Row | Sequence | self-splicing fitness (ln) (30 °C) | self-splicing fitness (ln) (37 °C)
51 | UGUUAGCAAUAUUACGCCUA | -1.17 ± 0.13 | 0.387 ± 0.15
52 | UGUUAGCAAUAUUACGGAGG | -2.3 ± 0.45 | 
53 | UGUUAGCAAUAUUACGGCUC | -2.55 ± 0.22 | 0.0795 ± 0.15
54 | UGUUAGCAAUAUUACGGGAG | -3.62 ± 0.25 | -3.42 ± 0.25
55 | UGUUAGCAAUAUUACGGGGA | -2.84 ± 0.22 | -2.2 ± 0.19
56 | UGUUAGCAAUAUUACGGUCC | -2.6 ± 0.38 | 
57 | UGUUAGCAAUAUUACGUCAC | -3.58 ± 0.33 | -2.64 ± 0.38
58 | UGUUAGCAAUAUUACGUCAG | -1.61 ± 0.15 | -0.486 ± 0.2
59 | UGUUAGCAAUAUUACGUUCG | 0.135 ± 0.16 | 0.292 ± 0.16
60 | UGUUAGCAAUAUUACGUUUA | -1.78 ± 0.09 | -0.902 ± 0.098
61 | UUAAAGCAAUAUUACGACUG | -0.0352 ± 0.08 | 0.184 ± 0.12
62 | UUAAAGCAAUAUUACGAGGU | -4.09 ± 0.24 | -3.3 ± 0.27
63 | UUAAAGCAAUAUUACGCAAG | -0.46 ± 0.1 | 0.145 ± 0.14
64 | UUAAAGCAAUAUUACGCGGU | -3.37 ± 0.18 | -0.344 ± 0.13
65 | UUAAAGCAAUAUUACGCGUU | -2.44 ± 0.12 | -1.49 ± 0.13
66 | UUAAAGCAAUAUUACGGACA | -0.00448 ± 0.072 | 0.068 ± 0.11
67 | UUAAAGCAAUAUUACGGAUU | -2.69 ± 0.1 | -1.74 ± 0.14
68 | UUAAAGCAAUAUUACGGCAC | -1.19 ± 0.1 | -0.195 ± 0.13
69 | UUAAAGCAAUAUUACGGCCA | -0.086 ± 0.13 | -0.188 ± 0.17
70 | UUAAAGCAAUAUUACGGCGC | -0.589 ± 0.11 | 0.34 ± 0.17
71 | UUAAAGCAAUAUUACGGGAC | -3.27 ± 0.24 | -2.24 ± 0.28
72 | UUAAAGCAAUAUUACGGGCC | -1.7 ± 0.21 | -1.25 ± 0.28
73 | UUAAAGCAAUAUUACGGGCG | 0.077 ± 0.081 | -0.11 ± 0.1
74 | UUAAAGCAAUAUUACGGUAU | -2.14 ± 0.086 | -1.22 ± 0.11
75 | UUAAAGCAAUAUUACGGUGA | -0.488 ± 0.097 | 0.559 ± 0.13

Row | Sequence | self-splicing fitness (ln) (30 °C) | self-splicing fitness (ln) (37 °C)
76 | UUAAAGCAAUAUUACGUAGG | -1.29 ± 0.11 | 0.067 ± 0.13
77 | UUAAAGCAAUAUUACGUCAC | -2.97 ± 0.16 | -1.76 ± 0.22
78 | UUAAAGCAAUAUUACGUCCG | -0.581 ± 0.12 | 0.242 ± 0.15
79 | UUAAAGCAAUAUUACGUCCU | -0.682 ± 0.081 | -0.281 ± 0.096
80 | UUAAAGCAAUAUUACGUGCU | -1.16 ± 0.082 | -0.057 ± 0.12
81 | UUAAAGCAAUAUUACGUGUU | -3 ± 0.13 | -1.96 ± 0.16
82 | UUAAAGCAAUAUUACGUUGG | -1.12 ± 0.094 | -0.746 ± 0.1
83 | UUACAGCAAUAUUACGAUUC | -2.03 ± 0.092 | -0.667 ± 0.097
84 | UUACAGCAAUAUUACGCACA | -0.783 ± 0.12 | 0.168 ± 0.12
85 | UUACAGCAAUAUUACGCAUA | -1.34 ± 0.091 | -0.527 ± 0.1
86 | UUACAGCAAUAUUACGCAUG | -1.18 ± 0.069 | -0.0513 ± 0.087
87 | UUACAGCAAUAUUACGCCCG | -0.115 ± 0.18 | 0.245 ± 0.25
88 | UUACAGCAAUAUUACGCCCU | -2.55 ± 0.24 | -0.401 ± 0.26
89 | UUACAGCAAUAUUACGCCGA | -1.29 ± 0.2 | -0.354 ± 0.22
90 | UUACAGCAAUAUUACGCCGU |  | -2.05 ± 0.31
91 | UUACAGCAAUAUUACGCGAC | -2.37 ± 0.17 | -1.41 ± 0.18
92 | UUACAGCAAUAUUACGCGCU | -2.93 ± 0.37 | -2.04 ± 0.31
93 | UUACAGCAAUAUUACGCGUA | -3.07 ± 0.2 | -1.94 ± 0.16
94 | UUACAGCAAUAUUACGCGUC | -3.64 ± 0.2 | -1.32 ± 0.19
95 | UUACAGCAAUAUUACGCGUU | -3.05 ± 0.14 | -1.95 ± 0.15
96 | UUACAGCAAUAUUACGCUGG | -4.24 ± 0.32 | -2.08 ± 0.23
97 | UUACAGCAAUAUUACGGCCC | -0.167 ± 0.33 | 
98 | UUACAGCAAUAUUACGGCGA | -0.0852 ± 0.081 | 0.489 ± 0.11
99 | UUACAGCAAUAUUACGGGCG | -0.655 ± 0.051 | 0.0547 ± 0.066

— the supplement of paper PMC7877785
